Test results taken from patent US20220395553A1 (COHBAR, published 2022).
Square brackets hold non-standard residues; d marks the D form. Ends that are not written are not given here.

Key:
[1] = biological target: CXCR4 on cultured U937 and Jurkat cells (human, UniProt P61073 1-352); assay: cell-based or functional assay
[2] = biological target: ProLink tagged human CXCR4 (C2C12 CXCR4 β-Arrestin cell line) (human, UniProt P61073 1-352); assay: cell-based or functional assay
[3] = biological target: T1, SNAP tagged-CXC4 receptor labeled with terbium (Tag-lite CXCR4 cells, HEK293) (UniProt P61073 1-352, SNAP tag labeled with terbium fluorescent dye); assay: HTRF competition on Tag-lite CXCR4 HEK293 cells; competitor labelled CXCL12
T1 construct: whole, on cells; Bought frozen cells (PerkinElmer-CisBio), HEK293 transiently expressing the receptor; also called terbium labeled CXCR receptor
Protocol: Peptides were initially prepared as 1 mM stock in H₂O and tested at a final concentration of 400 nM. Following the manufacture's protocol, a frozen aliquot of Tag-lite CXCR4 cells was thawed and immediately seeded onto 384-well plates in TLB. Immediately following the addition of cells, 400 nM peptide (final concentration) in TLB was added to the appropriate well. […] The plates were covered in aluminum foil and left at room temperature for 3 hours. Following the 3 hour incubation period, the plates were removed from the incubator and fluorescence measured using a Cytation 1 plate reader using a HTRF filter cube ([…]; BioTek; Winooski, Vt.).

T1 sequence (P61073 whole entry): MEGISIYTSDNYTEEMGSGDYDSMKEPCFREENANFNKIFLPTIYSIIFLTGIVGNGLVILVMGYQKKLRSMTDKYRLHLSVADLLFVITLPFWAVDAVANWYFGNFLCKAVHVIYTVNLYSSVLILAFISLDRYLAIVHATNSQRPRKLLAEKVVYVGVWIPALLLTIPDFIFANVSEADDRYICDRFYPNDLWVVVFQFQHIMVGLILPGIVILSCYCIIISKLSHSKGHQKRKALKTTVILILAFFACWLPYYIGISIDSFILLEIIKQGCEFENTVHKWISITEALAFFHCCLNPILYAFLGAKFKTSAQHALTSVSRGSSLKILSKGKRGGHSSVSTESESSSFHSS
CXCR4 on cultured U937 and Jurkat cells, sequence (P61073 whole entry): as above
ProLink tagged human CXCR4 (C2C12 CXCR4 β-Arrestin cell line), sequence (P61073 whole entry): as above

Binder | Percent Inhibition of CXCR4/CXCL12 Induced p-MEK (100 nM Test Article) [1] | Percent Inhibition of CXCR4/CXCL12 Induced p-MEK (1 µM Test Article) [1] | IC50 for Inhibition of CXCR4 Activation (β-Arrestin recruitment) [2] | Percent Inhibition of CXCR4/CXCL12 Binding (400 nM peptide) [3]
LERYHHT[dA]RSSLRPYTK [SEQ ID NO: 40] | 33% | 94% | 5 nM | –
LERYHHS[dA]RTSLRPYTK [SEQ ID NO: 76] | 5% | 44% | 6 nM | 75%
LERYHHS[dA]RSTLRPYTK [SEQ ID NO: 77] | 7% | 68% | 4 nM | 77%
LERYHHS[dA]RSSLRPYSK [SEQ ID NO: 78] | 29% | 46% | 12 nM | 72%
LRRYHHS[dA]RSSLRPYTK [SEQ ID NO: 6] | – | – | 8 nM | -10%
LREYHHSVRSSLRPYTK [SEQ ID NO: 31] | – | – | > 1000 nM | -16%
LRRYHHSVESSLRPYTK [SEQ ID NO: 62] | – | – | 64 nM | 4%
LRRYHHSVRSSLEPYTK [SEQ ID NO: 63] | – | – | 14 nM | 9%
LREYHHS[dA]RSSLRPYTK [SEQ ID NO: 32] | – | – | > 1000 nM | -18%
LRRYHHS[dA]ESSLRPYTK [SEQ ID NO: 64] | – | – | 14 nM | -6%
LRRYHHS[dA]RSSLEPYTK [SEQ ID NO: 65] | – | – | 40 nM | -5%
LRDYHHS[dA]RSSLRPYTK [SEQ ID NO: 37] | – | – | > 1000 nM | -14%
LRRYHHS[dA]DSSLRPYTK [SEQ ID NO: 68] | – | – | 13 nM | -10%
LRRYHHS[dA]RSSLDPYTK [SEQ ID NO: 69] | – | – | 63 nM | -5%
RRYHHSVRSSLRPYTK [SEQ ID NO: 10] | – | – | 103 nM | -8%
RYHHSVRSSLRPYTK [SEQ ID NO: 11] | – | – | 175 nM | -9%
YHHSVRSSLRPYTK [SEQ ID NO: 12] | – | – | > 1000 nM | -13%
HHSVRSSLRPYTK [SEQ ID NO: 13] | – | – | > 1000 nM | -10%
HSVRSSLRPYTK [SEQ ID NO: 14] | – | – | > 1000 nM | -15%
SVRSSLRPYTK [SEQ ID NO: 15] | – | – | > 1000 nM | -11%
LRRYHHSVRSSLRPYT [SEQ ID NO: 24] | – | – | 102 nM | 8%

Binder | Percent Inhibition of CXCR4/CXCL12 Induced p-MEK (100 nM Test Article) [1] | Percent Inhibition of CXCR4/CXCL12 Induced p-MEK (1 µM Test Article) [1] | IC50 for Inhibition of CXCR4 Activation (β-Arrestin recruitment) [2] | Percent Inhibition of CXCR4/CXCL12 Binding (400 nM peptide) [3]
LRRYHHSVRSSLRPY [SEQ ID NO: 25] | – | – | 51 nM | 0%
LRRYHHSVRSSLRP [SEQ ID NO: 26] | – | – | 67 nM | 1%
LRRYHHSVRSSLR [SEQ ID NO: 27] | – | – | 34 nM | 10%
LRRYHHSVRSSL [SEQ ID NO: 28] | – | – | 4 nM | 12%
LRRYHHSVRSS [SEQ ID NO: 29] | – | – | 46 nM | 14%
LRRYNHSVRSSLRPYTK [SEQ ID NO: 41] | – | – | 4 nM | -2%
LERYNHSVRSSLRPYTK [SEQ ID NO: 42] | – | – | 22 nM | 32%
LRRYHNSVRSSLRPYTK [SEQ ID NO: 44] | – | – | 32 nM | 0%
LERYHNSVRSSLRPYTK [SEQ ID NO: 45] | – | – | 121 nM | 1%
LERYHNS[dA]RSSLRPYTK [SEQ ID NO: 46] | – | – | 187 nM | -4%
LRRYQHSVRSSLRPYTK [SEQ ID NO: 47] | – | – | 11 nM | 5%
LERYQHSVRSSLRPYTK [SEQ ID NO: 48] | – | – | 53 nM | 13%
LERYQHS[dA]RSSLRPYTK [SEQ ID NO: 49] | – | – | 66 nM | 20%
LRRYHQSVRSSLRPYTK [SEQ ID NO: 50] | – | – | 121 nM | -5%
LERYHQSVRSSLRPYTK [SEQ ID NO: 51] | – | – | 134 nM | -2%
LERYHQS[dA]RSSLRPYTK [SEQ ID NO: 52] | – | – | 121 nM | -2%
LERYHHSVRSSLRPY [SEQ ID NO: 19] | – | – | 19 nM | 44%
LERYHHSVRSSLRP [SEQ ID NO: 20] | – | – | 37 nM | 37%
LERYHHSVRSSLR [SEQ ID NO: 21] | – | – | 16 nM | 20%
LERYHHSVRSSL [SEQ ID NO: 22] | – | – | 17 nM | 14%
LERYHHSVRSS [SEQ ID NO: 23] | – | – | 28 nM | 23%
